Laboratory results published in patent US20170292963A1 (Johns Hopkins, published 2017).

Molecular target: T1, Human NPTX2 (native protein in human CSF; antigen of the anti-human NPTX2 antibody) (human, UniProt P47972 17-431)
T1 construct: In CSF the protein is disulfide-linked with NPTX1 in heterocomplexes; also called Narp
T1 sequence: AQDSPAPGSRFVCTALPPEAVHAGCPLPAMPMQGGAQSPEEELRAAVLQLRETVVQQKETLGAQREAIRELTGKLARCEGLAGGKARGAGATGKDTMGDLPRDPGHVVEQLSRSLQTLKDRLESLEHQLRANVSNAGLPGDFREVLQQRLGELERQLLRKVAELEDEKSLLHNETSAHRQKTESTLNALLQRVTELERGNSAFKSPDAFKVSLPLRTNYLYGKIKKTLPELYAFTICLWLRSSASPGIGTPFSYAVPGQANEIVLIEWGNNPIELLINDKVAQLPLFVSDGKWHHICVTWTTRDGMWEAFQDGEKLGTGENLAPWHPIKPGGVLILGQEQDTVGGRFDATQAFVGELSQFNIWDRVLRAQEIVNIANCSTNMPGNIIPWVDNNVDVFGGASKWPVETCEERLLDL
Test: co-immunoprecipitation from human CSF

B1: Human NPTX1 (native protein in human CSF; antigen of the anti-human NPTX1 antibody) (other)
chain: QDFGPTRFICTSVPVDADMCAASVAAGGAEELRSSVLQLRETVLQQKETILSQKETIRELTAKLGRCESQSTLDPGAGEARAGGGRKQPGSGKNTMGDLSRTPAAETLSQLGQTLQSLKTRLENLEQYSRLNSSSQTNSLKDLLQSKIDELERQVLSRVNTLEEGKGGPRNDTEERVKIETALTSLHQRISELEKGQKDNRPGDKFQLTFPLRTNYMYAKVKKSLPEMYAFTVCMWLKSSATPGVGTPFSYAVPGQANELVLIEWGNNPMEILINDKVAKLPFVINDGKWHHICVTWTTRDGVWEAYQDGTQGGSGENLAPYHPIKPQGVLVLGQEQDTLGGGFDATQAFVGELAHFNIWDRKLTPGEVYNLATCSTKALSGNVIAWAESHIEIYGGATKWTFEACRQIN
B1: binds.
